The Immune Epitope Database (IEDB)

What was measured:
Assay in all cases: IEDB peptide-MHC binding, purified MHC/competitive/radioactivity; filed as Kd, often an IC50 or EC50 that approximates it; ≥ and ≤ were set here for values at or beyond the usual limits of such assays
HLA-A*31:01 = target: HLA-A*31:01
HLA-A*68:01 = target: HLA-A*68:01
HLA-A*11:01 = target: HLA-A*11:01
HLA-A*33:01 = target: HLA-A*33:01
HLA-A*03:01 = target: HLA-A*03:01
HLA-A*02:06 = details: source organism: Dengue virus 2 Jamaica/1409/1983
[1] = source organism: Vaccinia virus WR
[2] = source organism: Mammarenavirus lassaense
[3] = source organism: Mammarenavirus juninense
[4] = source organism: Lassa virus Josiah
[5] = source organism: SARS coronavirus Tor2

GFEARIVDK
Kd (HLA-A*31:01; [1]): 1.6 µM | Kd (HLA-A*68:01; [1]): 16.3 µM | Kd (HLA-A*11:01; [1]): 9.03 µM | Kd (HLA-A*33:01; [1]): 10.3 µM | Kd (HLA-A*03:01; [1]): ≥ 41 µM

WIKDIMTSTR
Kd (HLA-A*31:01; [1]): 0.301 µM | Kd (HLA-A*68:01; [1]): 0.0227 µM | Kd (HLA-A*11:01; [1]): ≥ 21.2 µM | Kd (HLA-A*33:01; [1]): 0.064 µM | Kd (HLA-A*03:01; [1]): 2.2 µM

FLELKRGIY
Kd (HLA-A*31:01; [1]): 2.2 µM | Kd (HLA-A*68:01; [1]): 1.88 µM | Kd (HLA-A*11:01; [1]): 10.7 µM | Kd (HLA-A*33:01; [1]): 4.54 µM | Kd (HLA-A*03:01; [1]): ≥ 78 µM

DSCNANGCEH
Kd (HLA-A*31:01; [2]): ≥ 70 µM | Kd (HLA-A*68:01; [2]): ≥ 70.1 µM | Kd (HLA-A*11:01; [2]): ≥ 69.7 µM | Kd (HLA-A*33:01; [2]): ≥ 70 µM | Kd (HLA-A*03:01; [2]): ≥ 70 µM

MRYTCLNSEK
Kd (HLA-A*31:01; [3]): 5.03 µM | Kd (HLA-A*68:01; [3]): 10.1 µM | Kd (HLA-A*11:01; [3]): ≥ 49.1 µM | Kd (HLA-A*33:01; [3]): 6.78 µM | Kd (HLA-A*03:01; [3]): 0.283 µM

GIPYCNYSK
Kd (HLA-A*31:01; [4]): ≥ 45 µM | Kd (HLA-A*68:01; [4]): 0.444 µM | Kd (HLA-A*11:01; [4]): 0.118 µM | Kd (HLA-A*33:01; [4]): ≥ 24.2 µM | Kd (HLA-A*03:01; [4]): 3.33 µM

IVPEFAKQY
Kd (HLA-A*31:01; [1]): ≥ 21.3 µM | Kd (HLA-A*68:01; [1]): 9.12 µM | Kd (HLA-A*11:01; [1]): 11.8 µM | Kd (HLA-A*33:01; [1]): ≥ 42.9 µM | Kd (HLA-A*03:01; [1]): ≥ 28.2 µM

FIKYVNGWVK
Kd (HLA-A*31:01; [1]): 0.115 µM | Kd (HLA-A*68:01; [1]): 0.00113 µM | Kd (HLA-A*11:01; [1]): 0.00156 µM | Kd (HLA-A*33:01; [1]): 0.111 µM | Kd (HLA-A*03:01; [1]): 0.00176 µM

ITPTIEDDK
Kd (HLA-A*31:01; [1]): ≥ 77.9 µM | Kd (HLA-A*68:01; [1]): 0.528 µM | Kd (HLA-A*11:01; [1]): 6.56 µM | Kd (HLA-A*33:01; [1]): ≥ 77.7 µM | Kd (HLA-A*03:01; [1]): ≥ 78 µM

QTQTYNIGK
Kd (HLA-A*31:01; [1]): 0.316 µM | Kd (HLA-A*68:01; [1]): 0.00883 µM | Kd (HLA-A*11:01; [1]): 0.00703 µM | Kd (HLA-A*33:01; [1]): 2.62 µM | Kd (HLA-A*03:01; [1]): 0.143 µM

TQSRDLEDFK
Kd (HLA-A*31:01; [5]): 14.6 µM | Kd (HLA-A*68:01; [5]): ≥ 29 µM | Kd (HLA-A*11:01; [5]): 12.5 µM | Kd (HLA-A*33:01; [5]): ≥ 70 µM | Kd (HLA-A*03:01; [5]): 19.3 µM

QFKQDAKYSH
Kd (HLA-A*31:01; [4]): 18.2 µM | Kd (HLA-A*68:01; [4]): ≥ 70.1 µM | Kd (HLA-A*11:01; [4]): ≥ 69.7 µM | Kd (HLA-A*33:01; [4]): 10.6 µM | Kd (HLA-A*03:01; [4]): ≥ 70 µM

FISDNKKEY
Kd (HLA-A*31:01; [1]): ≥ 77.9 µM | Kd (HLA-A*68:01; [1]): 7.07 µM | Kd (HLA-A*11:01; [1]): ≥ 77.9 µM | Kd (HLA-A*33:01; [1]): ≥ 77.7 µM | Kd (HLA-A*03:01; [1]): ≥ 78 µM

NLFSKNILKY
Kd (HLA-A*31:01; [1]): ≥ 70 µM | Kd (HLA-A*68:01; [1]): 8.77 µM | Kd (HLA-A*11:01; [1]): 16.3 µM | Kd (HLA-A*33:01; [1]): ≥ 70 µM | Kd (HLA-A*03:01; [1]): 0.656 µM

TMRIYCSLFK
Kd (HLA-A*31:01; [1]): 0.00178 µM | Kd (HLA-A*68:01; [1]): 0.0267 µM | Kd (HLA-A*11:01; [1]): 0.00021 µM | Kd (HLA-A*33:01; [1]): 0.0935 µM | Kd (HLA-A*03:01; [1]): 0.00118 µM

VILQNAWKV
Kd (HLA-A*02:06): 0.00445 µM
